In US20240301385, “DNA MODIFYING ENZYMES AND ACTIVE FRAGMENTS AND VARIANTS THEREOF AND METHODS OF USE” (LIFEEDIT THERAPEUTICS, INC., published 2024):

T1: APG30130-L32-nAPG07433.1 (synthetic)
T1 chain: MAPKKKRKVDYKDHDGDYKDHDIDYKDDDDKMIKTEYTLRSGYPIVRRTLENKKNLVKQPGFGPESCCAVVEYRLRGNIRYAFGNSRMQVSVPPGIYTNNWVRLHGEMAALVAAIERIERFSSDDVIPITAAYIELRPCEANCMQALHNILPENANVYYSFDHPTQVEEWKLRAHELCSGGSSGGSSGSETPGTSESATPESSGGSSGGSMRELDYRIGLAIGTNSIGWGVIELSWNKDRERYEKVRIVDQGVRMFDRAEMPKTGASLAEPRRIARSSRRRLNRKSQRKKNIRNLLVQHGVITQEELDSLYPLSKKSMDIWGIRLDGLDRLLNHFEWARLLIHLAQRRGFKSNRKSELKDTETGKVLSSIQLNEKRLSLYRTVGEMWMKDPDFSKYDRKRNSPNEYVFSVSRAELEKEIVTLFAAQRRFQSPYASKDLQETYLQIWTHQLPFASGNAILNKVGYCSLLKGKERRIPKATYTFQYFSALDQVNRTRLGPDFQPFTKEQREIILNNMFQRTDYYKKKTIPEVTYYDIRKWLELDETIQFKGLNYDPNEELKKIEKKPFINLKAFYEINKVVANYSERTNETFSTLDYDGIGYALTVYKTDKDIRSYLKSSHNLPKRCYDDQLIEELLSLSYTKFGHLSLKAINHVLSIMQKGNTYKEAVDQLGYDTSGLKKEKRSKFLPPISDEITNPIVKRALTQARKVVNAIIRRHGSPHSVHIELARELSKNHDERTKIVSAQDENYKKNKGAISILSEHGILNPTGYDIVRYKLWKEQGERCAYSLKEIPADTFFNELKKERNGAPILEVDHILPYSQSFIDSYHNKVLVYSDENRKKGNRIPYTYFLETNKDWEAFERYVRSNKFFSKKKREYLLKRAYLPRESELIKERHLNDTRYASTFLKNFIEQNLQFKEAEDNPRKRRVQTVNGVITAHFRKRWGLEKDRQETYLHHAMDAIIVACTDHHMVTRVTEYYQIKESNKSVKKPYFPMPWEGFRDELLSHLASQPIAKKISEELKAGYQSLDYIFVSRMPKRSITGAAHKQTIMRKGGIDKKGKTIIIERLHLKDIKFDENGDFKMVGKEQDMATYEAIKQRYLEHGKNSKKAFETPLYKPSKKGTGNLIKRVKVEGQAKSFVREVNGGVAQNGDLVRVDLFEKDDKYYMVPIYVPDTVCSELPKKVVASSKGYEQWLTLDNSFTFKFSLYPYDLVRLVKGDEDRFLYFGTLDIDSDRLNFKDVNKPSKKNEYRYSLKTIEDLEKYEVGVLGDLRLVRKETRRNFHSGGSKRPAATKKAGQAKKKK

B1: SGN000930 sgRNA ; SGN000930 target (ssRNA ; dsDNA)
RNA: GAACAACUCAAAUGGAAAUGAAUAUGUCAUAGUUCCAUGAAAGCCAAAAGUGGCUUUGAUGUUUCUAUGAUAAGGGUUUCGGCCCGUGGCGUCGGGGAUCGCCUGCCCAUUCCGAUGGGCUUCUCCCCAUUUAUU
DNA 1: GAACAACTCAAATGGAAATGAATAT
DNA 2: ATATTCATTTCCATTTGAGTTGTTC
B2: SGN000194 sgRNA ; SGN000194 target (ssRNA ; dsDNA)
RNA: GCCGCACAGCAUUCAGGUCGGUCAUAGUUCCAUUAAAGCCAAAAGUGGCUUUGAUGUUUCUAUGAUAAGGGUUUCGACCCGUGGCGUCGGGGAUCGCCUGCCCAUUGAAAUGGGCUUCUCCCCAUUUAUU
DNA 1: GCCGCACAGCATTCAGGTCG
DNA 2: CGACCTGAATGCTGTGCGGC

Biological target: T1, APG30130-L32-nAPG07433.1
Test: cell_activity; HEK293FT; PAM SEQ 152
Details: tags: SV40 NLS, 3xFLAG N-term; nucleoplasmin NLS C-term
How it was run: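 Editing read out by next-generation sequencing (MiSeq 2×250) of PCR amplicons spanning the target site, analysed for INDELs or % cytosine conversion per position (position 1 nearest PAM).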

Row | Binder | activity
1 | B1 | 3.14 % mutated reads
2 | B2 | 3.29 % mutated reads
